Source: IntAct's records for PubMed 23559067

B1: Retinal rod rhodopsin-sensitive cGMP 3',5'-cyclic phosphodiesterase subunit delta (Homo sapiens), O43924 (parent)
chain: MSAKDERAREILRGFKLNWMNLRDAETGKILWQGTEDLSVPGVEHEARVPKKILKCKAVSRELNFSSTEQMEKFRLEQKVYFKGQCLEEWFFEFGFVIPNSTNTWQSLIEAAPESQMMPASVLTGNVIIETKFFDDDLLVSTSRVRLFYV
partner: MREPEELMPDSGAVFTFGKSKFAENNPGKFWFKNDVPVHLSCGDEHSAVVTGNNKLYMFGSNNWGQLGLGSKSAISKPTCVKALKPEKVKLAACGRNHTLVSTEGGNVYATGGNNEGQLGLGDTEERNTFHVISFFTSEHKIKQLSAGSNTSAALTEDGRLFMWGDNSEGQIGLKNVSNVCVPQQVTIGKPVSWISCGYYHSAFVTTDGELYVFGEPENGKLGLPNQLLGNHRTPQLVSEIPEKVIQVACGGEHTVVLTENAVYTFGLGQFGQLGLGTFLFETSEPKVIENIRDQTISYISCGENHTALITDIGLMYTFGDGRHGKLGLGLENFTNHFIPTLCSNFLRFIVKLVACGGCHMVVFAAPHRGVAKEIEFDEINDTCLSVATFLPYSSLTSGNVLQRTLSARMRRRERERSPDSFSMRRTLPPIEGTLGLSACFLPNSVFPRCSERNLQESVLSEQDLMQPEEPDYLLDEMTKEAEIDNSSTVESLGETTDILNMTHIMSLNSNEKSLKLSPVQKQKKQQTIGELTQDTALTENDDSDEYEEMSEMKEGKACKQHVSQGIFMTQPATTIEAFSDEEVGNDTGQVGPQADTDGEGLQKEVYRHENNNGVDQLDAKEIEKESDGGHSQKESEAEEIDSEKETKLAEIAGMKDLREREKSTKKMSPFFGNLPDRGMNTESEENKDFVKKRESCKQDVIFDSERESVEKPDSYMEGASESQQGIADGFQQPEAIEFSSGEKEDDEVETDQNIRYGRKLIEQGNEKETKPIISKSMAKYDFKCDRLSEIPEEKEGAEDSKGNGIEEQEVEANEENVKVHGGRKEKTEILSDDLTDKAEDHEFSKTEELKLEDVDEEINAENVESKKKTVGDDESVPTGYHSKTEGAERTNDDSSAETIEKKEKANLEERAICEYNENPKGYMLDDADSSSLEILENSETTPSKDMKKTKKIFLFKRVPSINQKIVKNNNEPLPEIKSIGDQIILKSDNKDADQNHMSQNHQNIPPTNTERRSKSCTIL
B2: X-linked retinitis pigmentosa GTPase regulator (Homo sapiens), Q92834 (parent)
chain: B1 partner

Variants of: B1
Settings: with rpgr_human RPGR, Q92834

Row | effect of a mutation on the interaction | Variant
1 | disrupting interaction | R48E

Variants of: B2
Settings: with pde6d_human PDE6D, O43924

Row | effect of a mutation on the interaction | Variant
2 | disrupting interaction | E216R
